Laboratory results reported in patent US20230183338A1.

Target: VEEV p62-E1 (Venezuelan equine encephalitis virus, TrD strain) (UniProt P09592)
Assay: surface plasmon resonance (Biacore T200), […]

## HRV-cleaved monovalent LDLRAD3(D1) (from UniProt A2AR95 18-70) (receptor)
  Kd: 209 nM
